# Source: patent US20200165325A1
# Key:
# [1] = biological target: Env (gp120) of HIV-1 strain T251-18 (HIV-1)
# [2] = biological target: Env (gp120) of HIV-1 strain 0330.v4.c3 (HIV-1)
# [3] = biological target: Env (gp120) of HIV-1 strain WITO4160.33 (HIV-1)
# [4] = biological target: Env (gp120) of HIV-1 strain R2184.c04 (HIV-1)
# [5] = biological target: Env (gp120) of HIV-1 strain ZM53M.PB12 (HIV-1)
# [6] = biological target: Env (gp120) of HIV-1 strain Q769.d22 (HIV-1)
# [7] = biological target: Env (gp120) of HIV-1 strain C3347.c11 (HIV-1)
# [8] = biological target: Env (gp120) of HIV-1 strain T255-34 (HIV-1)
# [9] = biological target: Env (gp120) of HIV-1 strain P0402_c2_11 (HIV-1)
# [10] = biological target: Env (gp120) of HIV-1 strain HIV-16845-2.22 (HIV-1)
# [11] = biological target: Env (gp120) of HIV-1 strain TRO.11 (HIV-1)
# [12] = biological target: Env (gp120) of HIV-1 strain 1054_07_TC4_1499 (HIV-1)
# [13] = biological target: Env (gp120) of HIV-1 strain 62357_14_D3_4589 (HIV-1)
# [14] = biological target: Env (gp120) of HIV-1 strain R1166.c01 (HIV-1)
# [15] = biological target: Env (gp120) of HIV-1 strain T250-4 (HIV-1)
# [16] = biological target: Env (gp120) of HIV-1 strain X1193_c1 (HIV-1)
# [17] = biological target: Env (gp120) of HIV-1 strain PVO.4 (HIV-1)
# [18] = biological target: Env (gp120) of HIV-1 strain T278-50 (HIV-1)
# [19] = biological target: Env (gp120) of HIV-1 strain Ce2010_F5 (HIV-1)
# [20] = biological target: Env (gp120) of HIV-1 strain QH0692.42 (HIV-1)
# [21] = biological target: Env (gp120) of HIV-1 strain Q23.17 (HIV-1)
# [22] = biological target: Env (gp120) of HIV-1 strain Ce0393_C3 (HIV-1)
# [23] = biological target: Env (gp120) of HIV-1 strain 6535.3 (HIV-1)
# [24] = biological target: Env (gp120) of HIV-1 strain CNE30 (HIV-1)
# [25] = biological target: Env (gp120) of HIV-1 strain THRO4156.18 (HIV-1)
# [26] = biological target: Env (gp120) of HIV-1 strain Q461.e2 (HIV-1)
# [27] = biological target: Env (gp120) of HIV-1 strain ZM247v1(Rev-) (HIV-1)
# [28] = biological target: Env (gp120) of HIV-1 strain 3016.v5.c45 (HIV-1)
# [29] = biological target: Env (gp120) of HIV-1 strain C2101.c01 (HIV-1)
# [30] = biological target: Env (gp120) of HIV-1 strain Du156.12 (HIV-1)
# [31] = biological target: Env (gp120) of HIV-1 strain 0815.v3.c3 (HIV-1)
# [32] = biological target: Env (gp120) of HIV-1 strain TRJO4551.58 (HIV-1)
# [33] = biological target: Env (gp120) of HIV-1 strain 231965.c01 (HIV-1)
# [34] = biological target: Env (gp120) of HIV-1 strain 6540.v4.c1 (HIV-1)
# [35] = biological target: Env (gp120) of HIV-1 strain C1080.c03 (HIV-1)
# [36] = biological target: Env (gp120) of HIV-1 strain 1006_11_C3_1601 (HIV-1)
# [37] = biological target: Env (gp120) of HIV-1 strain 3817.v2.c59 (HIV-1)
# [38] = biological target: Env (gp120) of HIV-1 strain CAAN5342.A2 (HIV-1)
# [39] = biological target: Env (gp120) of HIV-1 strain CNE20 (HIV-1)
# [40] = biological target: Env (gp120) of HIV-1 strain 89-F1_2_25 (HIV-1)
# [41] = biological target: Env (gp120) of HIV-1 strain ZM135M.PL10a (HIV-1)
# [42] = biological target: Env (gp120) of HIV-1 strain 3718.v3.c11 (HIV-1)
# [43] = biological target: Env (gp120) of HIV-1 strain RHPA4259.7 (HIV-1)
# [44] = biological target: Env (gp120) of HIV-1 strain 6811.v7.c18 (HIV-1)
# [45] = biological target: Env (gp120) of HIV-1 strain ZM249M.PL1 (HIV-1)
# [46] = biological target: Env (gp120) of HIV-1 strain 211-9 (HIV-1)
# [47] = biological target: Env (gp120) of HIV-1 strain Q842.d12 (HIV-1)
# [48] = biological target: Env (gp120) of HIV-1 strain ZM214M.PL15 (HIV-1)
# [49] = biological target: Env (gp120) of HIV-1 strain AC10.0.29 (HIV-1)
# [50] = biological target: Env (gp120) of HIV-1 strain 6545.v4.c1 (HIV-1)
substance,measurement,setting,value
NIH45-46^G54W IgG (antibody),neutralization IC50,[1],0.26 µg/mL
same,neutralization IC50,[2],0.03 µg/mL
same,neutralization IC50,[3],0.01 µg/mL
same,neutralization IC50,[4],0.005 µg/mL
same,neutralization IC50,[5],0.04 µg/mL
same,neutralization IC50,[6],< 0.001 µg/mL
same,neutralization IC50,[7],< 0.001 µg/mL
same,neutralization IC50,[8],< 0.001 µg/mL
same,neutralization IC50,[9],0.003 µg/mL
same,neutralization IC50,[10],0.45 µg/mL
same,neutralization IC50,[11],0.04 µg/mL
same,neutralization IC50,[12],0.04 µg/mL
same,neutralization IC50,[13],0.02 µg/mL
same,neutralization IC50,[14],0.13 µg/mL
same,neutralization IC50,[15],1.33 µg/mL
same,neutralization IC50,[16],< 0.001 µg/mL
same,neutralization IC50,[17],0.05 µg/mL
same,neutralization IC50,[18],> 50 µg/mL
same,neutralization IC50,[19],0.038 µg/mL
same,neutralization IC50,[20],0.37 µg/mL
same,neutralization IC50,[21],0.01 µg/mL
same,neutralization IC50,[22],0.013 µg/mL
same,neutralization IC50,[23],0.03 µg/mL
same,neutralization IC50,[24],0.052 µg/mL
same,neutralization IC50,[25],0.54 µg/mL
same,neutralization IC50,[26],0.009 µg/mL
same,neutralization IC50,[27],0.32 µg/mL
same,neutralization IC50,[28],1.47 µg/mL
same,neutralization IC50,[29],0.04 µg/mL
same,neutralization IC50,[30],< 0.001 µg/mL
same,neutralization IC50,[31],< 0.001 µg/mL
same,neutralization IC50,[32],0.01 µg/mL
same,neutralization IC50,[33],< 0.001 µg/mL
same,neutralization IC50,[34],> 50 µg/mL
same,neutralization IC50,[35],0.2 µg/mL
same,neutralization IC50,[36],< 0.001 µg/mL
same,neutralization IC50,[37],> 50 µg/mL
same,neutralization IC50,[38],0.07 µg/mL
same,neutralization IC50,[39],0.04 µg/mL
same,neutralization IC50,[40],> 50 µg/mL
same,neutralization IC50,[41],0.04 µg/mL
same,neutralization IC50,[42],0.01 µg/mL
same,neutralization IC50,[43],< 0.001 µg/mL
same,neutralization IC50,[44],< 0.001 µg/mL
same,neutralization IC50,[45],0.002 µg/mL
same,neutralization IC50,[46],16.4 µg/mL
same,neutralization IC50,[47],0.005 µg/mL
same,neutralization IC50,[48],0.03 µg/mL
same,neutralization IC50,[49],0.13 µg/mL
same,neutralization IC50,[50],18.9 µg/mL
NIH45-46^G54Y IgG (antibody),neutralization IC50,[1],0.35 µg/mL
same,neutralization IC50,[2],0.03 µg/mL
same,neutralization IC50,[3],0.03 µg/mL
same,neutralization IC50,[4],0.015 µg/mL
same,neutralization IC50,[5],0.06 µg/mL
same,neutralization IC50,[6],0.007 µg/mL
same,neutralization IC50,[7],0.011 µg/mL
same,neutralization IC50,[8],0.04 µg/mL
same,neutralization IC50,[9],0.012 µg/mL
same,neutralization IC50,[10],0.59 µg/mL
same,neutralization IC50,[11],0.08 µg/mL
same,neutralization IC50,[12],0.064 µg/mL
same,neutralization IC50,[13],0.03 µg/mL
same,neutralization IC50,[14],0.24 µg/mL
same,neutralization IC50,[15],> 50 µg/mL
same,neutralization IC50,[16],0.006 µg/mL
same,neutralization IC50,[17],0.06 µg/mL
same,neutralization IC50,[18],> 50 µg/mL
same,neutralization IC50,[19],0.049 µg/mL
same,neutralization IC50,[20],0.52 µg/mL
same,neutralization IC50,[21],0.02 µg/mL
same,neutralization IC50,[22],0.036 µg/mL
same,neutralization IC50,[23],0.08 µg/mL
same,neutralization IC50,[24],0.099 µg/mL
same,neutralization IC50,[25],0.66 µg/mL
same,neutralization IC50,[26],0.023 µg/mL
same,neutralization IC50,[27],0.42 µg/mL
same,neutralization IC50,[28],17.9 µg/mL
same,neutralization IC50,[29],0.09 µg/mL
same,neutralization IC50,[30],0.007 µg/mL
same,neutralization IC50,[31],< 0.001 µg/mL
same,neutralization IC50,[32],0.03 µg/mL
same,neutralization IC50,[33],0.025 µg/mL
same,neutralization IC50,[34],> 50 µg/mL
same,neutralization IC50,[35],0.29 µg/mL
same,neutralization IC50,[36],0.005 µg/mL
same,neutralization IC50,[37],> 50 µg/mL
same,neutralization IC50,[38],0.1 µg/mL
same,neutralization IC50,[39],0.33 µg/mL
same,neutralization IC50,[40],> 50 µg/mL
same,neutralization IC50,[41],0.09 µg/mL
same,neutralization IC50,[42],0.3 µg/mL
same,neutralization IC50,[43],0.007 µg/mL
same,neutralization IC50,[44],0.011 µg/mL
same,neutralization IC50,[45],0.003 µg/mL
same,neutralization IC50,[46],> 50 µg/mL
same,neutralization IC50,[47],0.015 µg/mL
same,neutralization IC50,[48],0.06 µg/mL
same,neutralization IC50,[49],0.19 µg/mL
same,neutralization IC50,[50],> 50 µg/mL
